Assay results taken from PMC5828360, “Identification and characterization of highly versatile peptide-vectors that bind non-competitively to the low-density lipoprotein receptor for in vivo targeting and delivery of small molecules and protein cargos” (PLoS ONE, 2018).

Target: human LDLR, endogenous on HUVEC (human (endogenous in HUVEC)) (UniProt P01130)
Assay: flow cytometry on cells; 1.10^10 phage on 1.10^6 HUVEC, 20 min on ice, without or with LDL at 0.5 mg/mL; anti-M13 (anti-PVIII) and anti-hLDLR antibodies; signal in zone Q2

Sequence of human LDLR, endogenous on HUVEC (human (endogenous in HUVEC)) (P01130 22-860): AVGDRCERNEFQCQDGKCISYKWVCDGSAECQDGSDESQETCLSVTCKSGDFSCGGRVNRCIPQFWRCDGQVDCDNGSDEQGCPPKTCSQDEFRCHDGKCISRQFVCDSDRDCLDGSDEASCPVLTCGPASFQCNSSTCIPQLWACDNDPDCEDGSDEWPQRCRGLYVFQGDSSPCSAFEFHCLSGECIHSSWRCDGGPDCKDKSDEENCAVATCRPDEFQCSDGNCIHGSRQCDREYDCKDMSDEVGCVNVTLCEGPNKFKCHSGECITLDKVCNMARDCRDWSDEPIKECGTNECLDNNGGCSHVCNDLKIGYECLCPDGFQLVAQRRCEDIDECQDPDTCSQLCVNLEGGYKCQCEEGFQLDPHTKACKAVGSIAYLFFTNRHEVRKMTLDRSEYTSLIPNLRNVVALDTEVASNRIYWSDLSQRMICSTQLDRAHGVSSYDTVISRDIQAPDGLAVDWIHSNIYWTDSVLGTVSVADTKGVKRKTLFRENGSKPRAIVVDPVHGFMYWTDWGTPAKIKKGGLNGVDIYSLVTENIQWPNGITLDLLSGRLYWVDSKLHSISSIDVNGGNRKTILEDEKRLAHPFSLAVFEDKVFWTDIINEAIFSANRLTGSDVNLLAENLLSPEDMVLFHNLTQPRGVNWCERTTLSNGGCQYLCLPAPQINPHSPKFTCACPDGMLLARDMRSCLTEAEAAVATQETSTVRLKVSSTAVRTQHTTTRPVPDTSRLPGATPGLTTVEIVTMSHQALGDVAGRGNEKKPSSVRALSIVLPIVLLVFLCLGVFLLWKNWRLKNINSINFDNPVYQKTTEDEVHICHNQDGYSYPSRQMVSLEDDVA

low-density lipoprotein (LDL), P04114 28-4563
percent reduction of the VH549 phage signal (Q2) with LDL at 0.5 mg/mL: 56%
